What was measured:
[1] = target: SKOv-3細胞 (卵巣癌細胞株) の細胞表面抗原; assay: phage recovery: 1x10^7 phage + 1x10^7 SKOv-3 cells, 4C 4 h, 3 spins through solution (1) 1%BSA-MEM; colonies counted
[2] = target: SKOv-3細胞 (卵巣癌細胞株) の細胞表面抗原; assay: phage recovery: 1x10^7 phage + 1x10^7 SKOv-3 cells, 3 spins through solution (1) 1%BSA-MEM; colonies counted
[3] = target: SKOv-3細胞 (卵巣癌細胞株) の細胞表面抗原; assay: phage recovery: 1x10^7 phage + 1x10^7 SKOv-3 cells, 4C 4 h, 3 spins through solution (2) Diphenyl Ether:1.1.1-Trichloroethane:Hexane=44:27:33; colonies counted
[4] = target: SKOv-3細胞 (卵巣癌細胞株) の細胞表面抗原; assay: phage recovery: 1x10^7 phage + 1x10^7 SKOv-3 cells, 4C 4 h, 3 spins through solution (3) Isopropyl Ether:1.1.1-Trichloroethane:Hexane=20:50:30; colonies counted
[5] = target: SKOv-3膜タンパク (可溶性分画、ダイナビーズ結合); assay: phage recovery: Dynabeads with 10 ug SKOv-3 membrane protein + 1x10^8 cfu phage
[6] = target: SKOv-3細胞 (卵巣癌細胞株) の細胞表面抗原; assay: phage recovery: 1x10^7 phage + 1x10^7 SKOv-3 cells, 3 spins through solution (2) Ficoll-Paque diluted 4-fold in PBS; colonies counted
[7] = target: SKOv-3膜タンパク (可溶性分画、ダイナビーズ結合); assay: phage recovery on SKOv-3 membrane protein beads with 400 ug free SKOv-3 membrane protein as competitor
[8] = target: SKOv-3膜タンパク (可溶性分画、ダイナビーズ結合); assay: phage recovery on SKOv-3 membrane protein beads with 400 ug free SKOv-3 membrane protein against recovery without it
[9] = target: SKOv-3膜タンパク (可溶性分画、ダイナビーズ結合); assay: phage recovery on SKOv-3 membrane protein beads with 400 ug free HeLa membrane protein present

| 回収されたファージの数 [1] | 回収されたファージの数 [2] | 回収されたファージの数 [3] | 回収されたファージの数 [4] | 回収されたファージ (cfu) [5] [cfu] | 回収されたファージの数 [6] | 回収されたファージ (cfu) [7] [cfu] | 回収の変化 (遊離SKOv-3膜タンパク共存 / 非共存) [8] [fold] | 回収されたファージ (cfu) [9] [cfu] | Molecule |
| --- | --- | --- | --- | --- | --- | --- | --- | --- | --- |
| 308 ファージ数 | 1040 ファージ数 | 176 ファージ数 | 198 ファージ数 | 11 | 1040 ファージ数 | – | – | – | pAALSC3-D1.3HL 抗HEL(hen egg lysozyme)抗体ファージ (scFv) |
| – | – | – | – | 87000 | – | 2200 | 0.025 | 50000 | クローン126 (015-126 pIII:抗HER2抗体、ファージpIII融合scFv型抗体) (scFv, part only; not given: CL and pIII fusion parts, part only) scFv, part: QVQLVQSGAEVKKPGESLKISCKGSGYSFTSYWIGWVRQMPGKGLEWMGIIYPGDSDTRYSPSFQGQVTISADKSISTAYLQWSSLKASDTAMYYCARLTLSYSSSWFDYWGQGTLVTVSSQTVVTQEPSFSVSPGGTVTLTCGLSSGSVSTSYYPSWYQQTPGQAPRTLIYSTNTRSSGVPDRFSGSILGNKAALTITGAQADDESDYYCVLYMGSGISVFGGGTKLTVL |

From patent publication JP2005185281A
